Assay [1] has as its system E. coli ATCC 43895 (E. coli O157:H7). As to the kind of experiment: in vitro Tryptic Soy Broth (TSB) growth inhibition assay (Bioscreen C, OD 420-580 nm). In kind it is cell-based, Escherichia coli.
Assay [2] deals with Ps. aeruginosa (Pak strain). As to the kind of experiment: in vitro growth inhibition assay in Luria Broth Base (LB) (Bioscreen C, OD 420-580 nm). In kind it is cell-based, Pseudomonas aeruginosa. Particulars: 2% (w/v) LF in PBS, sample pH of 1.7 or lower; 200 CFU's/well (200 CFU's:1 mg LF); FIG. 1B.

B1: lactoferrin (protein, UniProt P02788 20-710, looked up)
Lactotransferrin: GRRRSVQWCAVSQPEATKCFQWQRNMRKVRGPPVSCIKRDSPIQCIQAIAENRADAVTLDGGFIYEAGLAPYKLRPVAAEVYGTERQPRTHYYAVAVVKKGGSFQLNELQGLKSCHTGLRRTAGWNVPIGTLRPFLNWTGPPEPIEAAVARFFSASCVPGADKGQFPNLCRLCAGTGENKCAFSSQEPYFSYSGAFKCLRDGAGDVAFIRESTVFEDLSDEAERDEYELLCPDNTRKPVDKFKDCHLARVPSHAVVARSVNGKEDAIWNLLRQAQEKFGKDKSPKFQLFGSPSGQKDLLFKDSAIGFSRVPPRIDSGLYLGSGYFTAIQNLRKSEEEVAARRARVVWCAVGEQELRKCNQWSGLSEGSVTCSSASTTEDCIALVLKGEADAMSLDGGYVYTAGKCGLVPVLAENYKSQQSSDPDPNCVDRPVEGYLAVAVVRRSDTSLTWNSVKGKKSCHTAVDRTAGWNIPMGLLFNQTGSCKFDEYFSQSCAPGSDPRSNLCALCIGDEQGENKCVPNSNERYYGYTGAFRCLAENAGDVAFVKDVTVLQNTDGNNNEAWAKDLKLADFALLCLDGKRKPVTEARSCHLAMAPNHAVVSRMDKVERLKQVLLHQQAKFGRNGSDCPDKFCLFQSETKNLLFNDNTECLARLHGKTTYEKYLGPQYVAGITNLKKCSTSPLLEACEFLRK
For the molecule B1, the “time for which E. coli growth was inhibited” value in assay [1] (2% (w/v) LF in PBS, test sample pH below 2.5, 530 CFU's:1 mg LF, 37° C., FIG. 1A) is “at least 60 hours”. In addition, the “antimicrobial activity on E. coli O157:H7 as function of EDTA concentration” value in assay [1] (2% (w/v) LF in demi water, 0-1 mM EDTA, pH about 5 not adjusted, 270 CFU's:1 mg LF, FIG. 2) is “increases with increasing EDTA concentration”. In addition, the “time for which growth of Pseudomonas aeruginosa is inhibited” value in assay [2] is recorded as “at least 45 hours”.

The values are drawn from US20080318834A1, “Antimicrobial Lactoferrin Compositions for Surfaces, Cavities, and Foodstuff” (priority 2004, published 2008).
